Positions count from the first letter of the chain named.
B1: recombinant scFv1-7L (scFv)
scFv: QAVLTQPSSVSGSLGQRVSITCSGSSSNIGRYGVGWYQQVPGSGLRRIIYGSVSRPSGVPVRFSGSKSGDTATLTISSLQAEDEADYFCATADYTSSPVLFGSGTTLTVLGQSSRSSQVQLRESGPSLVKPSQTLSLTCTVSGFSLSGNSVGWVRQTPGKALEWLGNMDGIGTTDYNPALKSRLSITKDNSKSQVSLSLSSVTTEDTATYYCAKCTGAYCWRFDDAYGYDDWGQGLLVTVSS
B2: recombinant scFv3-18L (scFv)
scFv: QAVLTQPSSVSGSLGQRVSITCSGSSSNIGRYGVGWYQQVPGSGLRRIIYGSVSRPSGVPVRFSGSKSGDTATLTISSLQAEDEADYFCATADYTSSPVLFGSGTTLTVLGQSSRSSSGGGSSGGGGSQVQLRESGPSLVKPSQTLSLTCTVSGFSLSGNSVGWVRQTPGKALEWLGNMDGIGTTDYNPALKSRLSITKDNSKSQVSLSLSSVTTEDTATYYCAKCTGAYCWRFDDAYGYDDWGQGLLVTVSS
B3: recombinant scFv4m-18L (scFv)
scFv: B2 scFv with S118G, D217G

Target: BHV-1 virus (Cooper strain)
Assay: cell-based or functional assay

Binder	50% viral neutralization end point [µg/mL]	Percent plaque reduction at 24 µg/ml, Experiment I [%]	Percent plaque reduction at 24 µg/ml, Experiment II [%]	Percent plaque reduction at 72 µg/ml, Experiment I [%]	Percent plaque reduction at 72 µg/ml, Experiment II [%]	Percent plaque reduction at 216 µg/ml, Experiment I [%]	Percent plaque reduction at 216 µg/ml, Experiment II [%]	Percent Plaque reduction at 11 µg/ml, Experiment I [%]	Percent Plaque reduction at 11 µg/ml, Experiment II [%]	Percent Plaque reduction at 33 µg/ml, Experiment I [%]	Percent Plaque reduction at 33 µg/ml, Experiment II [%]	Percent Plaque reduction at 99 µg/ml, Experiment I [%]	Percent Plaque reduction at 99 µg/ml, Experiment II [%]	Percent Plaque reduction at 15 µg/ml, Experiment I [%]	Percent Plaque reduction at 15 µg/ml, Experiment II [%]	Percent Plaque reduction at 45 µg/ml, Experiment I [%]	Percent Plaque reduction at 45 µg/ml, Experiment II [%]	Percent Plaque reduction at 135 µg/ml, Experiment I [%]	Percent Plaque reduction at 135 µg/ml, Experiment II [%]	fold higher protein concentration required for virus neutralization, compared with wild type scFv with either 7 or 18 amino acid linker [fold]
B1	3	86.3	84.8	95.9	94.2	100	100	–	–	–	–	–	–	–	–	–	–	–	–	–
B2	5.5	–	–	–	–	–	–	78.7	80	89.3	90.5	93.4	94.7	–	–	–	–	–	–	–
B3	15	–	–	–	–	–	–	–	–	–	–	–	–	55.8	48.5	67	70	92.4	92.6	2.7 to 5
